“And” between values parts separate entries of the source, which are not always exact repeats. Equal values may be shown once. Read-outs that look alike come from different tables or passages of the source. Where a SMILES comes first, the peptide text is derived from it. [ ]: non-standard residue; d: D form.
Experiments:
[1] = tested on: iPGM orthologs and dPGM isozymes; type: biochemical
D. immitis iPGM = type: biochemical, Dirofilaria immitis
B. malayi iPGM = B. malayi iPGM (Brugia malayi, UniProt Q4VWF8); assay: biochemical
O. volvulus iPGM = O. volvulus iPGM (Onchocerca volvulus, UniProt I6LDA6); assay: biochemical
E. coli iPGM = E. coli iPGM (Escherichia coli, UniProt P37689); assay: biochemical
E. coli iPGM, sequence (P37689 whole entry, looked up): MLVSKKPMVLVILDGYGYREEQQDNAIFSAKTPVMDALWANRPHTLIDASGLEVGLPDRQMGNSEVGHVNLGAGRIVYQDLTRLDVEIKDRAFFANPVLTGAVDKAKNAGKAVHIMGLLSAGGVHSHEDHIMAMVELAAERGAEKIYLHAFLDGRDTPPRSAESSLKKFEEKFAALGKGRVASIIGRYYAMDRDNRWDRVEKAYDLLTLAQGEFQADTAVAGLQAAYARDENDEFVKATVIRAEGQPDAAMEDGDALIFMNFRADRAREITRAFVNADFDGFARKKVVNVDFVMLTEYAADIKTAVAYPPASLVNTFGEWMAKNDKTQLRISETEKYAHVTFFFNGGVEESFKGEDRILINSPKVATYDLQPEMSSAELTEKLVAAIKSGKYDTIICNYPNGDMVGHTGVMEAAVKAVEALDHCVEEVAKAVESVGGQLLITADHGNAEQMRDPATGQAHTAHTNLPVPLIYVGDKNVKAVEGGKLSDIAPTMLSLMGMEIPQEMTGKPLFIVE

iPGM orthologues = assay: cell-based or functional assay
[2] = molecular target: T1, B. malayi cofactor-independent phosphoglycerate mutase (iPGM) (Brugia malayi), Q4VWF8; assay: cell-based or functional assay
T1 chain: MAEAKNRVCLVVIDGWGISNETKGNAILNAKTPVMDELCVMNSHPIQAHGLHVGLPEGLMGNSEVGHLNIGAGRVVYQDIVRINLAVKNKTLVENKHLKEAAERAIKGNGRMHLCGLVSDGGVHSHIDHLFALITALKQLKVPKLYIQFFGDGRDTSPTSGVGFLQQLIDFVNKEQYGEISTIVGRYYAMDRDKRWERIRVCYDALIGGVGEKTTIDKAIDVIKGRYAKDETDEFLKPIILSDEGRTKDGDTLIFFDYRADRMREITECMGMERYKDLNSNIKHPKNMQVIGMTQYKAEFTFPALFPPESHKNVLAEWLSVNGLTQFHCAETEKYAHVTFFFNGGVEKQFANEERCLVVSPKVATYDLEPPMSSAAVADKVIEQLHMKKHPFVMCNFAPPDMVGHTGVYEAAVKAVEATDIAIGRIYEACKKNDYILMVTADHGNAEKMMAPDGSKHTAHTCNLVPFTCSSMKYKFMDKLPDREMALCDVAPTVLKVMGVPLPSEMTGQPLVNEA

[3] = molecular target: T2, O. volvulus cofactor-independent phosphoglycerate mutase (iPGM) (Onchocerca volvulus), I6LDA6; assay: cell-based or functional assay
T2 chain: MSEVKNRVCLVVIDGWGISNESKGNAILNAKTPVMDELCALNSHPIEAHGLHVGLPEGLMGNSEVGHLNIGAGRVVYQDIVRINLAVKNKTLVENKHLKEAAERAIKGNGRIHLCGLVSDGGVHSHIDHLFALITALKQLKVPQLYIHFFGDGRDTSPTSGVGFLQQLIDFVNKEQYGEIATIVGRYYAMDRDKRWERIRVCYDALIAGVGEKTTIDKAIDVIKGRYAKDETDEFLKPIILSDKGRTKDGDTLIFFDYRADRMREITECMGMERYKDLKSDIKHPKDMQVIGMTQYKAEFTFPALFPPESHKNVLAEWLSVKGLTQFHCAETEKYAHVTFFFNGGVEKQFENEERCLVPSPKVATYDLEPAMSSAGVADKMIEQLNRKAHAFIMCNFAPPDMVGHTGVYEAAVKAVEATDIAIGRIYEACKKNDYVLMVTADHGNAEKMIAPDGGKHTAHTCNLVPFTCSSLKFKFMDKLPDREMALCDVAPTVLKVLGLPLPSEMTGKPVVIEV

[4] = molecular target: T3, C. elegans cofactor-independent phosphoglycerate mutase (iPGM) (Caenorhabditis elegans), G5EFZ1; assay: cell-based or functional assay
T3 chain: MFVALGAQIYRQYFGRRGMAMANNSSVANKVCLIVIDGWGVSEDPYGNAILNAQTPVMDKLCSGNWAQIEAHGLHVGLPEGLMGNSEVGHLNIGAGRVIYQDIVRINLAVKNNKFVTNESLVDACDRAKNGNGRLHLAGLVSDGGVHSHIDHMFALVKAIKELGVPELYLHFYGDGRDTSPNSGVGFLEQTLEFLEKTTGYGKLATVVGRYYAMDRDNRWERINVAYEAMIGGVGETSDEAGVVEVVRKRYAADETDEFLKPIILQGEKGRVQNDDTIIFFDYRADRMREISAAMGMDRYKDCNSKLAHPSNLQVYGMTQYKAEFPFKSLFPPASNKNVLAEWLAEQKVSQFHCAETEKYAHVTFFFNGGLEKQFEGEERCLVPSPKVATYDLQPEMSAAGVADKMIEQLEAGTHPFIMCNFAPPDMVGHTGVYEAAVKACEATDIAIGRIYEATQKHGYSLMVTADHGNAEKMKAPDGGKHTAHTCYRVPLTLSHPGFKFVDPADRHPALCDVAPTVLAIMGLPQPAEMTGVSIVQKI

[5] = molecular target: T4, E. coli cofactor-dependent phosphoglycerate mutase (dPGM) (Escherichia coli), P62707; assay: cell-based or functional assay
T4 chain: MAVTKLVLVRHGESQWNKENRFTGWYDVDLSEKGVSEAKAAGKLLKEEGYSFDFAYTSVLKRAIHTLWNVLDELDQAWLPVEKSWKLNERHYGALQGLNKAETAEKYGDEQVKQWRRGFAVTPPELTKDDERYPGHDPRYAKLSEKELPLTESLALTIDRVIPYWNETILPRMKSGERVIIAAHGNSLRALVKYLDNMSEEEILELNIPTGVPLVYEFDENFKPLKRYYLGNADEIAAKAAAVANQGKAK

[6] = molecular target: H. sapiens cofactor-dependent phosphoglycerate mutase (dPGM) (Homo sapiens), P18669; assay: cell-based or functional assay
[7] = molecular target: T5, E. coli cofactor-independent phosphoglycerate mutase (iPGM) (Escherichia coli), P37689; assay: cell-based or functional assay
[8] = molecular target: T2, O. volvulus cofactor-independent …; assay: cell-based or functional assay
[9] = molecular target: T3, C. elegans cofactor-independent …; assay: cell-based or functional assay
[10] = molecular target: T5, E. coli cofactor-independent …; assay: cell-based or functional assay; remark: listed apart in the source
[11] = molecular target: T3, C. elegans cofactor-independent …; assay: quadratic (stoichiometric binding) model fitted to concentration response curves of the coupled bioluminescent enzyme assay at several C. elegans iPGM concentrations (FIG. 10B)
[12] = molecular target: T1, B. malayi cofactor-independent …; assay: cell-based or functional assay
[13] = molecular target: T2, O. volvulus cofactor-independent …; assay: cell-based or functional assay
[14] = read-out: B. malayi iPGM Max Inhibition
[15] = read-out: O. volvulus iPGM Max Inhibition
[16] = read-out: E. coli iPGM Max Inhibition

CC(C)C[C@H](NC(=O)[C@H](Cc1ccc(O)cc1)NC(=O)[C@@H]1CSCC(=O)N[C@H](Cc2ccc(O)cc2)C(=O)N[C@@H](CC(=O)O)C(=O)N[C@@H](Cc2ccc(O)cc2)C(=O)N2CCC[C@H]2C(=O)NCC(=O)N[C@@H](CC(=O)O)C(=O)N[C@@H](Cc2ccc(O)cc2)C(=O)N1)C(=O)N[C@@H](Cc1ccc(O)cc1)C(=O)NCC(=O)N[C@H](C(=O)N[C@@H](CS)C(N)=O)[C@@H](C)O [Ce-2a]
inhibitory activity on the iPGM orthologs [1]: subnanomolar potency | D. immitis iPGM Max Inhibition (D. immitis iPGM): −100.1 ± 5.6 | D. immitis iPGM PIC50, M (D. immitis iPGM): 9.68 ± 0.09 M | D. immitis iPGM Max Inhibition (D. immitis iPGM; 0.0005 µM): −92.5 ± 4.0 | B. malayi iPGM PIC50, M (B. malayi iPGM): 8.07 ± 0.10 M and 9.49 ± 0.08 M | Emax (B. malayi iPGM; [14]): 99.2 ± 5.3% | inhibition at 0.0005 µM (B. malayi iPGM; [14]): 100.3 ± 0.8% | O. volvulus iPGM PIC50, M (O. volvulus iPGM): 7.31 ± 0.09 M | pIC50 O. volvulus iPGM (O. volvulus iPGM): 9.68 | Emax (O. volvulus iPGM; [15]): 97.7 ± 4.4% | inhibition at 0.0005 µM (O. volvulus iPGM; [15]): 97.5 ± 2.7% | E. coli iPGM PIC50, M (E. coli iPGM): 8.51 ± 0.14 M and 9.58 ± 0.02 M | Emax (E. coli iPGM; [16]): 99.2 ± 8.5% | inhibition at 0.0005 µM (E. coli iPGM; [16]): 84.1 ± 9.5%

CC(=O)N[C@H](Cc1ccc(O)cc1)C(=O)N[C@@H](CC(=O)O)C(=O)N[C@@H](Cc1ccc(O)cc1)C(=O)N1CCC[C@H]1C(=O)NCC(=O)N[C@@H](CC(=O)O)C(=O)N[C@@H](Cc1ccc(O)cc1)C(=O)N[C@@H](CO)C(=O)N[C@@H](Cc1ccc(O)cc1)C(=O)N[C@@H](CC(C)C)C(=O)N[C@@H](Cc1ccc(O)cc1)C(=O)NCC(=O)N[C@H](C(=O)N[C@@H](CS)C(=O)NCC(N)=O)[C@@H](C)O [Ce-L2] (Ac-[dY]DYPGDYSYLYGTCG-NH2)
D. immitis iPGM Max Inhibition (D. immitis iPGM): −44 ± 22.6 | B. malayi iPGM PIC50, M (B. malayi iPGM): 4.89 ± 0.21 M | Emax (B. malayi iPGM; [14]): 48.2 ± 18.2% | Emax (O. volvulus iPGM; [15]): 40.2 ± 27.6% | pIC50 E. coli iPGM (E. coli iPGM): 5.88 | Emax (E. coli iPGM; [16]): 95.1 ± 5.2%

^Ac-DYDYPGDYSYLY [Ce-L2d]
inhibitory activity on the iPGM orthologs [1]: completely inactive | D. immitis iPGM Max Inhibition (D. immitis iPGM): −5.2 ± 4.9 | B. malayi iPGM Max Inhibition (B. malayi iPGM): −7.3 ± 2.0 | O. volvulus iPGM Max Inhibition (O. volvulus iPGM): −15.7 ± 8.3 | E. coli iPGM Max Inhibition (E. coli iPGM): −21.1 ± 2.4

^Ac-DYLYGTCG [Ce-2tail]
activity on all PGMs [1]: inactive | D. immitis iPGM Max Inhibition (D. immitis iPGM): −1.9 ± 10.3 | B. malayi iPGM Max Inhibition (B. malayi iPGM): −10.2 ± 3.3 | O. volvulus iPGM Max Inhibition (O. volvulus iPGM): −11.6 ± 5.3 | E. coli iPGM Max Inhibition (E. coli iPGM): −21.1 ± 2.7

YDYPGDHCYLYGTCG (modifications not checked) [Ce-1 (ipglycermide A)]
inhibitory activity (endpoint profiling assays) (iPGM orthologues): 2 to 20 nM | Max Inhibition [2]: -94 | pIC50 [2]: 7.92 pIC50 (M) | Max Inhibition [3]: -95.4 | pIC50 [3]: 7.61 pIC50 (M) | Max Inhibition [4]: -95.8 | pIC50 [4]: 8.4 pIC50 (M) | Max Inhibition [5]: 5 | Max Inhibition [6]: 4 | Max Inhibition [7]: -96.5 | pIC50 [7]: 8.38 pIC50 (M) | pIC50 [8]: 7.62 pIC50

YDYPGDYCYLY (modifications not checked) [Ce-2d]
Max Inhibition [4]: -103 | Max Inhibition (* iPGM 500 pM) [4]: -100 | pEC50 (GEMBE) [4]: 8.49 pEC50 | pIC50 [4]: 8.56 pIC50 (M) | pIC50 (* iPGM 500 pM) [4]: 9.03 pIC50 (M) | Max Inhibition [5]: -6.3 | Max Inhibition (* series) [5]: 2.3 | Max Inhibition [6]: -1.2 | Max Inhibition (* series) [6]: 7.9 | Max Inhibition [7]: -102 | pEC50 (GEMBE) [7]: 8.5 pEC50 | pIC50 [7]: 8.71 pIC50 (M) | IC50 [9]: 3.9 nM and 3.88 nM | pIC50 [9]: 8.41 pIC50 | IC50 [10]: 0.77 nM | pIC50 [10]: 9.12 pIC50

YDYPGDYCYLYGTCG (modifications not checked) [Ce-2 (ipglycermide B)]
Kd [11]: 0.073 nM | inhibitory activity (endpoint profiling assays) (iPGM orthologues): 2 to 20 nM | Max Inhibition [2]: -98.8 | pEC50 (GEMBE) [2]: 8.37 pEC50 | pIC50 [2]: 8.27 pIC50 (M) | Max Inhibition [3]: -98.2 | fold enhancement in affinity against linear Ce-L2 (from IC50s) [3]: 10000 fold | pIC50 [3]: 7.72 pIC50 (M) | Max Inhibition [4]: -100 | Max Inhibition (* iPGM 500 pM) [4]: -101 | pEC50 (GEMBE) [4]: 8.36 pEC50 | pIC50 [4]: 8.65 pIC50 (M) | pIC50 (* iPGM 500 pM) [4]: 9.6 pIC50 (M) | Max Inhibition [5]: -5.9 | Max Inhibition (* series) [5]: 2.7 | Max Inhibition [6]: -0.3 | Max Inhibition (* series) [6]: 1.9 | Max Inhibition [7]: -102 | fold enhancement in affinity against linear Ce-L2 (from IC50s) [7]: 2000 fold | pEC50 (GEMBE) [7]: 8.49 pEC50 | pIC50 [7]: 8.78 pIC50 (M) | IC50 [12]: 17 nM and 16.8 nM | pIC50 [12]: 7.78 pIC50 | IC50 [13]: 23 nM and 23.5 nM | pIC50 [13]: 7.63 pIC50 | IC50 [9]: 2.3 nM and 2.34 nM | pIC50 [9]: 8.63 pIC50 | IC50 [10]: 0.23 nM | pIC50 [10]: 9.64 pIC50
